Data on 18 molecules can be found in US20260069689A1 (Regeneron, published 2026).

Substitutions are numbered along the chain they refer to.

The assay addresses SARS-COV-2 RBD extracellular domain expressed with a C-terminal myc-myc-hexahistidine tag (SARS-CoV-2). As to the kind of experiment: SPR (Biacore), mAb captured by anti-human Fc, RBD-mmH in solution, 25 C. On the technique in general: SPR reads the build-up and loss of mass on a sensor chip optically.

B1: mAb13458 (antibody, V domains shown)
VH: EVQLVESGGGLVQPGRSLRLSCAASGFTFDDYAMHWVRQAPGKGLEWVSGISWNSGSIGYADSVKGRFTISRDNAKNSLYLQMNSLRAEDTALYYCAKDIGITTPYWGQGTLVTVSS
VL: AIQMTQSPSSLSASVGDRVTITCRASQDIRNDLGWYQQKPGKAPKLLIYSASSLQTGVPSRFSGSGSGTDFTLTISSLHPEDFATYYCLQDYWYTWTFGQGTKVEIKR
Usually Kd stands for the free concentration of one partner at which half of the binding sites on the other are occupied at equilibrium, for simple one-to-one binding. Higher therefore signals a looser complex. As a reminder, the koff is a measure of how fast the partners let go of each other. Lower therefore signals a long-lived complex. The term kon denotes the rate constant with which the complex forms. The term t½ denotes the time needed for the level to fall by half in the phase considered. Lower therefore signals rapid decline. B1 had a Kd of 1.53 nM, a koff of 0.00139 s⁻¹, a kon of 909000 M⁻¹ s⁻¹ and a t½ of 8.3 min.

B2: mAb13459 (antibody, V domains shown)
VH: B1 VH
VL: B1 VL with W93N, T95V
Take B2: the Kd was determined as 2.51 nM, the koff was 0.00174 s⁻¹, the kon came to 693000 M⁻¹ s⁻¹ and the t½ was found to be 6.6 min.

B3: mAb14247 (antibody, V domains shown)
VH: QITLKESGPTLVKPTQTLTLTCTFSGFSLSTSAVGVGWIRQPPGKALEWLALIYWDDDKRYSPSLKSRLTITKDTSKNQLVLTMTNVDPVDTATYYCAHHTIQLIFDYWGQGTLVTVSS
VL: QSALTQPASVSGSPGQSITISCTATSSDVGNYNYVSWYQQHPGKAPKLMIYEVSNRPSGVSNRFSGSKSGNTASLTISGLQAEDEADYYCSSYTSSSTPLVFGGGTKLTVLG
In the case of B3, the Kd turned out to be 1.94 nM, the koff was determined as 0.00163 s⁻¹, the kon turned out to be 838000 M⁻¹ s⁻¹ and the t½ came out at 7.1 min.

B4: mAb14313 (antibody, V domains shown)
VH: EVQLVESGGGLVQPGRSLRLSCVASGFTFDDSAMHWVRQPPGKGLEWVSGISWNSGIIGYAESVKGRFIISRDNAKNSLFLHMRGLRPEDTAVYYCARDRLELSYYYYGMDVWGQGTTVTVSS
VL: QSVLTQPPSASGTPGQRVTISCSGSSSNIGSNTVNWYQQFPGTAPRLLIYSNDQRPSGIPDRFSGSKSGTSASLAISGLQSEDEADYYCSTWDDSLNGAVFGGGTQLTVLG
As for B4, the dissociation constant Kd was 1.53 nM, the koff was found to be 0.00217 s⁻¹, the kon turned out to be 1.42e+06 M⁻¹ s⁻¹ and the t½ was 5.3 min.

B5: mAb15164 (antibody, V domains shown)
VH: EVQLVESGGGLVQPGGSLRLSCAASGFAVSSNYMTWVRQAPGKGLEWVATIYSGDSTYYADSVKGRFTISRHNSKNTLSLQMNSLRADDTAIYYCARLSGVLSGTYNGAFDIWGQGTMVTVSS
VL: QSALTQPASVSGSPGQSITISCTGTSSDFGNYNIVSWYQQHPGQAPKVMIYEGNKRPSGVSNRFSGSKSGHTASLTISGLQAEDEADYYCSSYAGSSTWVFGGGTKLTVLG
Consider B5, for which the dissociation constant Kd came out at 1.53 nM, the koff turned out to be 0.000349 s⁻¹, the association rate constant (kon) was determined as 228000 M⁻¹ s⁻¹ and the t½ came to 33.1 min.

B6: mAb15165 (antibody, V domains shown)
VH: EVQLVESGGGLVQPGGSLRLSCAASGFTVSSNYMSWVRQAPGKGLEWVSAIYSGDSTYYADSVKGRFTISKDNSKNTLYLQMNSLRGEDTAVYYCARLGGALQAYDGAFDYWGQGTLATVSS
VL: B5 VL with N31S, I34L, Q44K, V48L, N62I, H71N
The molecule B6 displayed a Kd of 0.393 nM, a koff of 0.000212 s⁻¹, a kon of 539000 M⁻¹ s⁻¹ and a t½ of 54.6 min.

B7: mAb15166 (antibody, V domains shown)
VH: EVQLVESGGGLVQPGGSLRLSCAASGFTVTSNYMSWVRQAPGKGLEWVSAIYSGESTYYADSVKGRFTISRDSSKNTLYLQMNSLRVEDTAVYYCASIHDYSNYVGGFDPWGQGTLVTVSS
VL: B5 VL with T25P, N31S, I34L, Q44K, V48L, N54T, H71N
As to B7, the Kd was 21.7 nM, the koff was 0.00535 s⁻¹, the kon came out at 246000 M⁻¹ s⁻¹ and the t½ is 2.2 min.

B8: mAb15170 (antibody, V domains shown)
VH: EVQLVESGGGLVQPGGSLRLSCAATGITVSSNYMSWVRQAPGKGLEWVSLIYSGGSTFYADSVKGRFTISRHNSKNTLYLQMSSLRAEDTAVYYCARDLVDFGMDVWGQGTTVTVSS
VL: DIQLTQSPSSLSASVGDRVTITCRASQGISNYLAWYQQKPGKAPKLLIYAASTLQSGVPSRFSGSGSGTDFTLTISSLQPEDFGTYYCQQLNSDSPTFGQGTKVEIKR
B8 gave a Kd of 0.1 nM, an off-rate constant (koff) of 1.53e-05 s⁻¹, a kon of 200000 M⁻¹ s⁻¹ and a t½ of 756 min.

B9: mAb14315 (antibody, V domains shown)
VH: QVQLVQSGAEVKKPGSSVKVSCKASGDTFSTYAINWVRQAPGQGLEWMGRFIHIFGTANYAQKFQGRVTITADESTSTAYMELRSLRSEDTAVYYCARDGVDYGDYRPDYWGQGTLVTVSS
VL: EIVLTQSPGTLSLSPGERATLSCRASQSVSSNYLAWYQQKPGQAPRLLIYGASSRATGIPERFSGSGSGTDFTLTISRLEPEDFAVYYCQQYGSSLYTFGQGTKLEIKR
Regarding B9, the equilibrium dissociation constant (Kd) came out at 2.49 nM, the koff worked out at 0.00102 s⁻¹, the kon is 407000 M⁻¹ s⁻¹ and the t½ came to 11.4 min.

B10: mAb14284 (antibody, V domains shown)
VH: QITLKESGPTLVKPTQTLTLTCTFSGFSFSTSGVGVGWIRQPPGKTLEWLALIYWDDDKRYSPSLKSRLTITKDTSKNQVVLTMTNMDPVDTATYFCAHHGIPTIFGYWGQGALVTVSS
VL: QSALTQPASVSGSPGQSITISCTGTSSDLGVFNYVSWYQQHPGKAPKLMIYEVTNRPSGVSNRFSGSKSGNTASLTISGLQAEDEADYYCSSYTTSSTVFGGGTKLTVLG
B10: the affinity, expressed as Kd, was 0.824 nM; the koff stood at 0.000549 s⁻¹; the kon is 666000 M⁻¹ s⁻¹; the t½ came out at 21 min.

B11: mAb14235 (antibody, V domains shown)
VH: QITLKESGPTLVKPTQTLTLTCTFSGFSLNTGGVGVGWIRQPPGNALEWLALIYWDDDKRYNPSLKTRLTISKDTSKNQVVLTMTNMDPVDTATYFCAHLTIAVIVDFWGQGTLVTVSS
VL: B10 VL with G24A, L29V, V31T, F32Y, Y38F, Q40H, S96T, T98I
B11 showed a Kd of 1.33 nM, a koff of 0.00105 s⁻¹, a kon of 789000 M⁻¹ s⁻¹ and a t½ of 11 min.

B12: mAb14294 (antibody, V domains shown)
VH: EVQLVESGGGLVQPGGSLRLSCAASGFTFSNHWMDWVRQAPGKGLVWVSRINSDGSSTDYADSVRGRFTMSRDNAKNTLYLQMSSLRAEDTAVYYCAREGMIFGAVIIPGWYFDLWGRGALVTVSS
VL: EIVLTQSPGTLSLSPGERATLSCRASQSVSSSQLAWYQQKPGQAPRLLIYGASSRATGIPDRFSGSGSGTDFTLTISRLEPEDFAVYYCQQYDSFGQGTKLEIKR
B12 registered a Kd of 0.914 nM, a koff of 0.000548 s⁻¹, a kon of 600000 M⁻¹ s⁻¹ and a t½ of 21.1 min.

B13: mAb15150 (antibody, V domains shown)
VH: EVQLVETGGGLIQPGGSLRLSCAAPGFIVSSNYMSWVRQAPGKGLEWVSLLYPGGSTYYADSVKGRFTISRDNSKNTLYLQMNSLRADDTAVYYCARVLPIVEDHFDYWGQGTLVTVSS
VL: DIQLTQSPSFLSASVGDRVTITCRASQGMSSYLAWYQKKPGKAPKLLIYGATILQSGVPSRFSGSGSGTEFTLTISSLQPEDFATYYCQQLNSDPLYMYTFGQGTKLEIKR
Regarding B13, binding was characterised by a dissociation constant (Kd) of 0.0594 nM, the koff was found to be 4.61e-05 s⁻¹, the association rate constant (kon) is 774000 M⁻¹ s⁻¹ and the t½ worked out at 251 min.

B14: mAb14258 (antibody, V domains shown)
VH: QLQLQESGPGLVKPSETLSLICTGSGDSISSSHYYWGWIRQPPGKGLEWIGSTYFSGSTYYNPSLKSRVSISVDTSKNQVSLKLISVTAADTAVYYCAREMGATLGDYWGPGTLVTVSS
VL: QSVLTQPPSASGTPGQRVTISCSGSSSNIGNNYVYWYQQFPGTTPRLLIYRNNERPSGVPDRFSGSKSGTSASLVISGLRSEDEADYYCAAWDDSLSAHYVFGTGTKVTVLG
In turn, B14 registered a Kd of 0.854 nM, a koff of 0.00161 s⁻¹, a kon of 1.89e+06 M⁻¹ s⁻¹ and a t½ of 7.2 min.

B15: mAb14283 (antibody, V domains shown)
VH: QVQLQESGPGLVKPSGTLSLTCDVSGGSISSNNWWSWVRQRPGKGLQWIGEIYHNENTNYNPSLKSRVIMSIDKSKNQFSLKLTSVTAADTAVYYCARGDVLDWFDPWGQGTLVTVSS
VL: QSALTQPASVSGSPGQSTTISCTGTSSDVGGYNYVSWYQQYPGKAPKLMIYDVTNRPSGVSHRFSGSKSGNTASLTISGLQAEDEADYYCSSYTSSSTVIFGGGTKLTVLG
As to B15, binding was put at a Kd of 1.08 nM, the dissociation rate constant (koff) is 0.00158 s⁻¹, the kon stood at 1.46e+06 M⁻¹ s⁻¹ and the t½ is 7.3 min.

B16: mAb14289 (antibody, V domains shown)
VH: QVQLVQSGPEVKKPGASVKVSCKASGYTFTSYAISWVRQAPGQGLEWMGWISAYNGNTNYAQKLQGRVTMTTDTFTSTAYMELRSLRSDDTAVYYCAVPADHITFDYWGQGTLVTVSS
VL: EIVLTQSPGTLSLSPGERATLSCRASQSVSSYLAWYQQKPGQAPRLLIHGASSRATGIPDRFSGSGSGTDFTLTISRLEPEDFAVYYCQQYGSSFLTFGGGTKVEIKR
In turn, B16 registered a Kd of 1.36 nM, a koff of 0.00158 s⁻¹, a kon of 1.16e+06 M⁻¹ s⁻¹ and a t½ of 7.3 min.

B17: mAb15151 (antibody, V domains shown)
VH: QVQLVESGGGVVQPGRSLRLSCAASGFVFNSYGMHWVRQAPGKGLEWVAVLWYEGSKNYYADSVKGRFTISRDNSKNTLYLQMNSLRAEDTAVYYCARHGSGSFFGYYLDYWGQGTLVTVSS
VL: DIQMTQSPSSLSASVGDRVTITCRASHNINDFLNWYQQKPGKAPRLLIYAASSLQSGVPSRFSGSGSGTDFTLTISSLQPEDFATYYCQESYTTPPTFGQGTKLEIKR
For B17, the Kd worked out at 3.89 nM, the koff turned out to be 0.000778 s⁻¹, the kon came to 200000 M⁻¹ s⁻¹ and the t½ stood at 14.8 min.

B18: mAb14257 (antibody, V domains shown)
VH: EVQLVESGGGLVQPGGSLRLSCAASGFTVSRSYMNWVRQAPGKGLEWVSVVFTGGTTKHTDSVKGRFTISRDNSMNTLYLQMNSLRPEDTAVYYCARVAIVETTGAFDIWGQGTMVTVSS
VL: QSVLTQPPSVSGAPGQRVTISCTGTSSNIGADFDVHWYQQFPGTAPKLLIYGHTNRPSGIPDRFSGSKSGTSASLAITGLQAEDEADYYCQSYDSSLSGSVVFGGGTKLTVLG
B18 returned a Kd of 2.8 nM, a koff of 0.00952 s⁻¹, a kon of 3.4e+06 M⁻¹ s⁻¹ and a t½ of 1.2 min.
